Earlier results on 1 substance are cited in article PMC8625536.

This data set has as its target Glu89 (UniProt position 105, IDALNENKVLV). The note with it: Native folded protein; EF loop closed-to-open (Tanford) transition.

With “beta-lactoglobulin (called BBL in the article) (Bos taurus)”, the pKa (in general, the negative logarithm of the acid dissociation constant) was about 7.3.
